± gives the standard error. Variants at the floor of the assay were thinned out.
B1: glmS ribozyme (parent)
chain: AUAAAAGCGCCAGAACUACAGAAAUGUAGUUGACGAGGAGGAGGUUUAUCGAAUUUUCGGCGGAUGCCUCCAAA

Legend:
Conditions in all cases: with glucosamine-6-phosphate
[1] = variants of: B1; assay: self-cleavage kobs at 40 uM GlcN6P; higher = faster cleavage; RNA array
Procedure, shortened: (§1)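 Sequenced MiSeq chips were the platform: E. coli RNA polymerase transcribed barcoded ribozyme variants on them in situ, and a hybridised Cy3 probe tracked these at 37 °C. After glucosamine-6-phosphate (40 μM to 10 mM) in HEPES/KCl/Mg(OAc)2 buffer was flowed in, tiles were imaged over ~14 h. Signals normalised to baseline and to non-cleaving reference variants were reduced to per-tile medians and fit to one- or two-exponential decays to obtain kobs. kcat and KM were derived through weighted Michaelis–Menten fits across concentrations.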

[2] = variants of: B1; assay: self-cleavage kobs at 160 uM GlcN6P; higher = faster cleavage; RNA array
Procedure, shortened: as §1

[3] = variants of: B1; assay: self-cleavage kobs at 10000 uM GlcN6P; higher = faster cleavage; RNA array
Procedure, shortened: as §1

[4] = variants of: B1; assay: self-cleavage kobs at 640 uM GlcN6P; higher = faster cleavage; RNA array
Procedure, shortened: as §1

[5] = variants of: B1; assay: self-cleavage kobs at 2500 uM GlcN6P; higher = faster cleavage; RNA array
Procedure, shortened: as §1

Variant	self-cleavage kobs at 40 uM GlcN6P [1] [s⁻¹]	self-cleavage kobs at 160 uM GlcN6P [2] [s⁻¹]	self-cleavage kobs at 10000 uM GlcN6P [3] [s⁻¹]	self-cleavage kobs at 640 uM GlcN6P [4] [s⁻¹]	self-cleavage kobs at 2500 uM GlcN6P [5] [s⁻¹]
U46A U57G	< 1e-05	< 1e-05			
U46A U57C	< 1e-05				
A48G U69A	< 1e-05				
U46G A53U U69C	7.38e-05 ± 2.7e-05		0.00109 ± 0.0003		
C50G C71A	0.00184 ± 0.00076	0.000128 ± 1.3e-05		0.000215 ± 2e-05	0.000153 ± 1.4e-05
U46C G51U	< 1e-05	< 1e-05		< 1e-05	< 1e-05
C50G C70A C71G	7.15e-05 ± 1.7e-05		6.95e-05 ± 1.6e-05		
C50G C61A A64U	9.82e-05 ± 1.8e-05		0.000113 ± 1.8e-05		
C50A C58U C61U G63U	< 1e-05				
A48U G62C C70U	< 1e-05		< 1e-05	< 1e-05	< 1e-05
A48U C50U	< 1e-05	< 1e-05	< 1e-05	< 1e-05	< 1e-05
U49A C50G C68G	9.07e-05 ± 3.4e-05				
U49C G59A C67G	< 1e-05	< 1e-05	< 1e-05	< 1e-05	
A48U G60A	< 1e-05	< 1e-05	< 1e-05	< 1e-05	< 1e-05
A48U C50A G66U	< 1e-05				
C50U A52C	< 1e-05	< 1e-05	< 1e-05		< 1e-05
U47A G62U	< 1e-05	< 1e-05	< 1e-05	< 1e-05	< 1e-05
U46G G66C	0.000227 ± 3.8e-05	0.000418 ± 0.00013		0.00135 ± 0.00038	0.00594 ± 0.0017
U49A C50G U57A C67A C71A	0.000473 ± 0.00018	0.000223 ± 6.6e-05		0.000357 ± 0.00011	7.6e-05 ± 3.3e-05
U46G A52G C61A	< 1e-05				
C50G G51U	< 1e-05	< 1e-05			
U47G A52U U69G	4.05e-05 ± 1.5e-05		3.79e-05 ± 1.3e-05		
C50U C61G G63U	< 1e-05				
C50U G59C	< 1e-05	< 1e-05	< 1e-05	< 1e-05	< 1e-05

Reference: the supplement of paper PMC7125110
